Values of other authors, collected in publication PMC4407497.

What was measured:
IL-22BP (Homo sapiens) = IL-22BP (Homo sapiens) (UniProt Q969J5)
IL-22R1 (Homo sapiens) = IL-22R1 (Homo sapiens) (UniProt Q8N6P7)
Sequence of UniProt Q8N6P7 (Q8N6P7 16-228): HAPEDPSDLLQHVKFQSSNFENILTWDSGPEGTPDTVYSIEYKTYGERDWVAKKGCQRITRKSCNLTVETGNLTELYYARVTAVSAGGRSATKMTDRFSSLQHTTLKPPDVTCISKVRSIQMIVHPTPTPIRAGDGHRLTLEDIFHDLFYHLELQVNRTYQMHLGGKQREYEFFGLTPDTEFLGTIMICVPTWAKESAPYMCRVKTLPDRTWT

Sequence of UniProt Q969J5 (Q969J5 22-263): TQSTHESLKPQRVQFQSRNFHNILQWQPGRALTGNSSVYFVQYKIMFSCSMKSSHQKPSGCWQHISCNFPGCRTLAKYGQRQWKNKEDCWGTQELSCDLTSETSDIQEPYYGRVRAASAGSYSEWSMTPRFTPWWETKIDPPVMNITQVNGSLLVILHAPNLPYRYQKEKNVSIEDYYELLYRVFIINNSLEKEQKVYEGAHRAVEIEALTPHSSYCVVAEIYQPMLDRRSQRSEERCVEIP

Kd (IL-22BP (Homo sapiens)): 0.001 nM
Kd (IL-22R1 (Homo sapiens)): 20 nM
Substance: IL-22 (from UniProt Q9GZX6)
